“And” between values parts separate entries of the source, which are not always exact repeats. Identical values can stand only once. Like-named read-outs stand apart in the source and are kept apart here.
B1: recombinant form of human platelet factor 4 (PF4), tetramer (natural protein)
chain: EAEEDGDLQCLCVKTTSQVRPRHITSLEVIKAGPHCPTAQLIATLKNGRKICLDLQAPLYKKIIKKLLES
B2: KKO monoclonal anti-PF4/heparin antibody (antibody, V domains shown)
VH: VQLQQSGAELVKPGASVKLSCKASGYTFTNYFIYWVKQRPGQGLEWIGEINPRNGDTDFNEKFESRATLTVDKSSSTAYMQLSSLTSEDSAIYYCTRSPYGNNYGFTYWGQGTLVTVSA
VL: DIQMIQSQKFMSTSVGDRVTVTCKASQNVGTNVAWYQQKPGQSPNALIYSASYRYSGVPDRFTGSGSGTDFTLTITNVQSEDLADYFCQQYNSYPLTFGTGTKLDLK

Tests used:
Assay in all cases: native MS
native MS = target: the molecule itself
[1] = target: T1, recombinant form of human platelet factor 4 (PF4), tetramer (human, UniProt P02776)
[2] = target: T1, recombinant form of human platelet …; remark: listed apart in the source

| Binder | stoichiometry N (native MS) [chains per oligomer] | stoichiometry N [1] | stoichiometry N [2] |
| --- | --- | --- | --- |
| B1 | 4 |  |  |
| B2 |  | 1 PF4 tetramer (with dp20) per KKO and 2 PF4 tetramers (with dp20) per KKO | 1 KKO per complex of two PF4 tetramers on one heparin chain and 2 KKO per complex of three PF4 tetramers on one heparin chain |

Reference: article doi:10.1101/2023.02.11.528150 (bioRxiv, 2023)
